For test [1], the target named is HtpG from Synechococcus elongatus PCC 7942 (Synechococcus elongatus PCC 7942). Nature of the test: AUC.
Test [2] shares this target. Nature of the test: SEC. A general note: Size exclusion chromatography separates by hydrodynamic size, large species first.

The source of these data is paper doi:10.1101/2025.04.03.647111.

The term stoichiometry N denotes the number of molecules, sites or subunits per partner or assembly. Take “HtpG from Synechococcus elongatus PCC 7942 (natural protein)”: the stoichiometry N in test [1] and in test [2] was 2 throughout.
